The target in this assay is activated type I collagenase. Briefly: cell-based or functional assay.

The substance “T2N (three N-terminal disulfide-bonded loops of human TIMP-2, C-terminal His-tag, expressed in Pichia pastoris) (from UniProt P16035 27-153)” registered an IC50 of inhibition of MMP activity (quantitative radiometric 14C-collagen film assay) of 7.5 nM.

The values are drawn from patent US20060099684A1.
